Source: PMC5389655

Experiments:
[1] = target: Escherichia coli core RNA polymerase, assembled into synthetic transcription elongation complexes (TECs) (E. coli) (UniProt P0A8V2)
[2] = target: Escherichia coli core RNA polymerase, assembled into synthetic transcription elongation complexes (TECs) (E. coli) (UniProt P0A8V2); assay: […]) at 10 nM, […]
[3] = target: Escherichia coli core RNA polymerase, assembled into synthetic transcription elongation complexes (TECs) (E. coli) (UniProt P0A8V2); assay: native gel or EMSA
[4] = target: Escherichia coli core RNA polymerase, assembled into synthetic transcription elongation complexes (TECs) (E. coli) (UniProt P0A8V2); assay: native gel or EMSA; remark: listed apart in the source

UniProt P0A8V2, sequence (P0A8V2 whole entry, looked up, one chain of several): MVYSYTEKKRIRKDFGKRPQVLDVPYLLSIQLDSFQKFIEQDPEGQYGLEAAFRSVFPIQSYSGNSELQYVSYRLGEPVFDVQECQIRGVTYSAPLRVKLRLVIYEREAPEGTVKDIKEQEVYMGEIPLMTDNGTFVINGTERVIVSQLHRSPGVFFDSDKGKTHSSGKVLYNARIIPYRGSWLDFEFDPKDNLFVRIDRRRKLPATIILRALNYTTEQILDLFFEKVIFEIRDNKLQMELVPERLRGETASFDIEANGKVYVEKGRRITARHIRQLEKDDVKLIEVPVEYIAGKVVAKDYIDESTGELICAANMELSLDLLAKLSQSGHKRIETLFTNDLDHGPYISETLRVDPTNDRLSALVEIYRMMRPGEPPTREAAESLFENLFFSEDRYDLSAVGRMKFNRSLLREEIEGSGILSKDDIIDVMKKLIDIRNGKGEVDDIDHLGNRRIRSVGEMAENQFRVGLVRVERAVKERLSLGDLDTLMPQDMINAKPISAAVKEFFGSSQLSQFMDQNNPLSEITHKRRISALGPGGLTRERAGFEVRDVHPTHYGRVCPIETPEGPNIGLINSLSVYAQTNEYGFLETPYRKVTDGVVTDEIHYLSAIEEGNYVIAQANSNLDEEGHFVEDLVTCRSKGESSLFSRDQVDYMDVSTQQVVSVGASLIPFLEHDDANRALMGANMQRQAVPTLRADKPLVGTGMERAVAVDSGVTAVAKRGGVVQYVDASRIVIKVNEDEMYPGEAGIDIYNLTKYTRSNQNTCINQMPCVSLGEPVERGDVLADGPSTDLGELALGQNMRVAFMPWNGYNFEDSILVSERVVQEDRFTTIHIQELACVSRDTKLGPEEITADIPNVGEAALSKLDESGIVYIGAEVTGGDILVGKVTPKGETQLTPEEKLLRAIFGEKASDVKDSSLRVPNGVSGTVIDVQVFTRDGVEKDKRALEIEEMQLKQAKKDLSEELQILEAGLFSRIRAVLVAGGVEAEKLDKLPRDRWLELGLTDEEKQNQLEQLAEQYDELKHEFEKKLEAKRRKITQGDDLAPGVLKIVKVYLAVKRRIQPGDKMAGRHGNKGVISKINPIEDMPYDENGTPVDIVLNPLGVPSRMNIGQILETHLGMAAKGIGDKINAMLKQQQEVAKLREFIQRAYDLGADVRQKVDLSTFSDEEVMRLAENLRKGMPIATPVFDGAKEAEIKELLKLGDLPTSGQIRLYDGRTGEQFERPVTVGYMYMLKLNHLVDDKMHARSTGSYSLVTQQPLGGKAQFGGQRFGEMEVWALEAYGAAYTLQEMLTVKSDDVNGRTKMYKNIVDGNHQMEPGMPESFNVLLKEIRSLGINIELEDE

## Escherichia coli σ^38 subunit (stationary phase and stress response σ factor) (from UniProt P13445 1-330) (natural protein)
[1]
  Kd from pausing efficiency in the transcription assay on the '-TG' TEC variant: 525 nM
[2]
  Kd: 330 nM
[3]
  Kd: > 10000 nM
[4]
  Kd: 900 nM
